The results in this text go back to the Human Domainome abundance scans (Beltran et al. 2025).

± gives the uncertainty stated by the source.

To fix the notation:
B1: Glucocorticoid receptor, residues 419 to 494; numbered along this chain, P04150 (parent)
chain: KLCLVCSDEASGCHYGVLTCGSCKVFFKRAVEGQHNYLCAGRNDCIIDKIRRKNCPACRYRKCLQAGMNLEARKTK

The data set covers variants of B1. In words: abundance fitness (aPCA) (normalised: wild type 0, dead -1); higher = more abundant; growth selection in yeast, the domain comes from the species named. Conditions: Homo sapiens.
With N54L, the abundance fitness was -0.021 ± 0.034. To N54E belongs -0.025 ± 0.044.

As for C6R, the abundance fitness is -0.852 ± 0.085. With C6V, the abundance fitness was -1.06 ± 0.15. On to C6I, for which the abundance fitness was -0.751 ± 0.16. For the variant G16L, the abundance fitness is -0.558 ± 0.05. As for G16T, the abundance fitness was -0.264 ± 0.049. To G16A belongs -0.216 ± 0.037; to G16V, -0.738 ± 0.079; to V5S, -1.03 ± 0.17.

On to V5Y, for which the abundance fitness was -0.631 ± 0.19.

On to V5W, for which the abundance fitness was -0.952 ± 0.14. In the case of K28G, the abundance fitness was -0.051 ± 0.031. In the case of K28Q it was 0.014 ± 0.056. With K28D, the abundance fitness is -0.061 ± 0.069.

For K28R, the abundance fitness is -0.034 ± 0.033. In the case of G21P, the abundance fitness was -0.008 ± 0.056.

For the variant G21S, the abundance fitness is -0.023 ± 0.04.

G21I: the abundance fitness was -0.088 ± 0.099. To G21R belongs -0.086 ± 0.033; to G21C, -0.064 ± 0.06. Consider Y15A, for which the abundance fitness is -0.085 ± 0.041. To Y15P belongs -0.134 ± 0.048; to Y15H, -0.088 ± 0.08; to Y15C, -0.153 ± 0.06. In the case of Y15W it was 0.008 ± 0.049; in that of Y15N, 0.004 ± 0.067; in that of S7P, -0.757 ± 0.11. To S7W belongs -0.115 ± 0.043; to S7G, 0.012 ± 0.034; to S7C, -0.046 ± 0.072. Turning to S7F, the abundance fitness is -0.045 ± 0.076. Consider S7L, for which the abundance fitness was -0.017 ± 0.037. In the case of S7R it was -0.048 ± 0.031; in that of A40T, -0.067 ± 0.044. Regarding A40Q, the abundance fitness stood at 0.012 ± 0.047. In the case of A40I, the abundance fitness is -0.038 ± 0.079. In the case of A40V it was 0.019 ± 0.034. Regarding E9C, the abundance fitness is 0.083 ± 0.052. In the case of E9V it was 0.031 ± 0.035; in that of E9Y, -0.105 ± 0.072; in that of E9D, -0.015 ± 0.077. To E9P belongs 0.074 ± 0.047; to G67S, -0.516 ± 0.079; to G67Y, -0.304 ± 0.16.

As to G67P, the abundance fitness was -0.904 ± 0.19. Turning to G67Q, the abundance fitness is -0.371 ± 0.081. Take G67K: the abundance fitness was -0.308 ± 0.082. As to L70E, the abundance fitness is -0.021 ± 0.049.

Consider L70C, for which the abundance fitness is -0.029 ± 0.053. In the case of L70R it was 0.023 ± 0.03; in that of L70D, -0.033 ± 0.072.

In the case of T75M, the abundance fitness was -0.004 ± 0.062. In the case of T75G it was 0.044 ± 0.042; in that of T75S, 0.008 ± 0.043; in that of T75A, 0.029 ± 0.044. In the case of D48N, the abundance fitness was found to be 0.024 ± 0.091. D48W: the abundance fitness is -0.415 ± 0.049. To H14A belongs -0.077 ± 0.035.

Turning to H14C, the abundance fitness is -0.128 ± 0.068. H14N: the abundance fitness was -0.086 ± 0.093.

Take H14D: the abundance fitness was -0.016 ± 0.057. To H14F belongs -0.088 ± 0.11. In the case of C3Q it was -0.686 ± 0.16. In the case of C3L it was -0.918 ± 0.11; in that of C3P, -0.84 ± 0.26. Turning to C3F, the abundance fitness was -0.719 ± 0.29. Take C3S: the abundance fitness is -0.728 ± 0.089.

For C3W, the abundance fitness is -0.879 ± 0.14. K1W: the abundance fitness was -0.301 ± 0.068.

On to K1Y, for which the abundance fitness was -0.101 ± 0.083. To K1T belongs -0.324 ± 0.062; to K1M, 0.046 ± 0.046.

For D8A, the abundance fitness worked out at 0.037 ± 0.039. For D8E, the abundance fitness was -0.033 ± 0.048. To D8S belongs -0.034 ± 0.038; to D8M, -0.216 ± 0.067; to D8V, -0.219 ± 0.039. To D8T belongs -0.195 ± 0.056. To D8K belongs -0.27 ± 0.069.

Consider D8R, for which the abundance fitness was -0.237 ± 0.036. To Q65P belongs -0.567 ± 0.079. With Q65A, the abundance fitness is -0.019 ± 0.038. As for Q65D, the abundance fitness came to 0.045 ± 0.071. To I46P belongs -0.048 ± 0.042; to I46V, -0.027 ± 0.031; to I46S, 0.005 ± 0.038. In the case of I46R it was -0.012 ± 0.027. In the case of E71Q it was -0.051 ± 0.063; in that of E71N, -0.017 ± 0.065; in that of E71L, -0.104 ± 0.038. On to L18I, for which the abundance fitness turned out to be 0.035 ± 0.082. Consider L18F, for which the abundance fitness was -0.002 ± 0.067. For the variant L18K, the abundance fitness is -0.088 ± 0.044. In the case of L18Q, the abundance fitness was -0.087 ± 0.05. To G12M belongs -0.071 ± 0.042. In the case of G12L it was -0.166 ± 0.034; in that of G12S, -0.063 ± 0.04. With G12N, the abundance fitness is -0.093 ± 0.071. Turning to G12W, the abundance fitness was -0.153 ± 0.053. In the case of G12F it was -0.083 ± 0.071. To Q34A belongs -0.016 ± 0.038. To Q34N belongs 0.08 ± 0.087; to Q34F, -0.256 ± 0.12; to K74I, 0.027 ± 0.08. On to K74R, for which the abundance fitness came out at 0.054 ± 0.037. On to K74Y, for which the abundance fitness was determined as 0.043 ± 0.15. To S22F belongs 0.043 ± 0.11; to S22P, -0.06 ± 0.38; to A72V, -0.043 ± 0.035. Regarding A72D, the abundance fitness was -0.017 ± 0.06. In the case of A72S it was -0.067 ± 0.042; in that of A72W, -0.023 ± 0.039; in that of A72F, -0.285 ± 0.081. In the case of C45F it was -0.649 ± 0.21; in that of C45I, -0.948 ± 0.3. For C45Y, the abundance fitness is -0.704 ± 0.22. In the case of C45W it was -0.932 ± 0.13; in that of R59Y, -0.087 ± 0.074.

R59K: the abundance fitness was -0.52 ± 0.078. In the case of Y60H it was -0.178 ± 0.11; in that of Y60N, -0.478 ± 0.13.

As for Y60M, the abundance fitness is -0.07 ± 0.049. On to C55Q, for which the abundance fitness is -0.838 ± 0.11. In the case of C55T it was -0.849 ± 0.11. In the case of C55P, the abundance fitness was -0.757 ± 0.14. In the case of I50L it was 0.046 ± 0.036; in that of I50P, 0.081 ± 0.07; in that of I50S, 0.015 ± 0.04. To I50E belongs -0.028 ± 0.047; to I50G, 0.009 ± 0.029.

In the case of I50R, the abundance fitness turned out to be 0.005 ± 0.033. In the case of C13I it was 0.112 ± 0.064; in that of C13V, 0.015 ± 0.035.

As for C13D, the abundance fitness was -0.008 ± 0.069. Take C13S: the abundance fitness was -0.037 ± 0.037.

Take C13K: the abundance fitness is -0.018 ± 0.043. C13P: the abundance fitness is -0.07 ± 0.047.

Turning to D44S, the abundance fitness is -0.08 ± 0.044. Turning to D44F, the abundance fitness was -0.381 ± 0.18. To D44M belongs 0 ± 0.072; to D44H, -0.11 ± 0.12; to L4A, -0.096 ± 0.043. As for L4H, the abundance fitness is -0.141 ± 0.053. As to L4E, the abundance fitness is 0.024 ± 0.046. In the case of L4D it was 0.035 ± 0.07; in that of L4T, 0.004 ± 0.04; in that of L4F, -0.024 ± 0.065. In the case of L4V it was -0.052 ± 0.035. In the case of F26P it was -0.872 ± 0.15. In the case of F26Q, the abundance fitness was -0.858 ± 0.17.

With F26A, the abundance fitness is -0.877 ± 0.099.

As for C63N, the abundance fitness was -0.667 ± 0.21. To C63V belongs -0.863 ± 0.088; to C63K, -0.779 ± 0.14; to C63R, -0.772 ± 0.082. As to C63G, the abundance fitness is -0.06 ± 0.031. For the variant C63E, the abundance fitness is -0.871 ± 0.11. To T19H belongs -0.311 ± 0.1; to T19A, -0.031 ± 0.038. To T19I belongs -0.057 ± 0.07; to A57I, -0.614 ± 0.14; to A57D, -0.182 ± 0.067. On to A57C, for which the abundance fitness was -0.039 ± 0.06.

A57T: the abundance fitness was -0.571 ± 0.071. Take A57F: the abundance fitness is -0.457 ± 0.12.

In the case of A57M, the abundance fitness is -0.587 ± 0.066.
